The source of these data is patent US20110300138A1 (published 2011).

Assay [1] concerns the target full length wild type human TSHR (human) (UniProt P16473). Put plainly: TSHR260-AP bridge ELISA, wild type TSHR on wells; IgG at 0.1 µg/mL in HBD. Background: An ELISA detects its analyte on a solid surface through an enzyme-linked reagent.
In assay [2] the target is TSH receptor (TSHR), full length human, coated on tubes (human) (UniProt P16473). Put plainly: inhibition of 125I-TSH binding to TSHR coated tubes; 0.1 µg/mL, diluted in assay buffer.
The target of assay [3] is full length wild type human TSHR (human) (UniProt P16473). Kind of assay: TSHR260-AP bridge ELISA, wild type TSHR on wells; IgG at 1 µg/mL in HBD.
The target of assay [4] is human thyroid stimulating hormone receptor (TSHR), full length (human) (UniProt P16473). Put plainly: 125I-K1-70 Fab (competitor) binding to TSHR coated tubes; test sample 10 µg/mL in assay buffer.
Assay [5] concerns the target TSH receptor (TSHR), full length human, coated on tubes (human) (UniProt P16473). Kind of assay: inhibition of 125I-TSH binding to TSHR coated tubes; 0.01 µg/mL, diluted in HBD serum pool.
Assay [6] concerns the target full length wild type human TSHR (human) (UniProt P16473). Kind of assay: TSHR260-AP bridge ELISA, wild type TSHR on wells; IgG at 0.005 µg/mL in HBD.
Assay [7] addresses full length human TSHR with mutation Arg255 Asp (human) (UniProt P16473). Put plainly: TSHR260-AP bridge ELISA, Arg255 Asp TSHR on wells; IgG at 0.01 µg/mL in HBD.
Assay [8] addresses human thyroid stimulating hormone receptor (TSHR), full length (human) (UniProt P16473). Kind of assay: 125I-K1-70 Fab (competitor) binding to TSHR coated tubes; test sample 1 µg/mL in HBD serum.
In assay [9] the target is thyroid stimulating hormone receptor (full length human TSHR) (human) (UniProt P16473). Kind of assay: ELISA, inhibition of TSH-biotin binding to TSHR coated wells; 100 µg/mL, diluted in HBD serum pool.
Assay [10] deals with TSHR260-AP (human). Put plainly: TSHR260-AP bridge ELISA (full length TSHR on wells, TSHR260-AP in solution); IgG 0.005 µg/mL diluted in HBD serum.
The target in assay [11] is TSHR260-alkaline phosphatase (TSHR260-AP) (human) (UniProt P05187). Kind of assay: TSHR260-AP bridge ELISA, full length TSHR on wells; 0.1 µg/mL, diluted in HBD.
Assay [12] deals with TSHR260-AP (human). Kind of assay: TSHR260-AP bridge ELISA (full length TSHR on wells, TSHR260-AP in solution); IgG 1 µg/mL diluted in assay buffer.
For assay [13], the target named is TSHR260-alkaline phosphatase (TSHR260-AP) (human) (UniProt P05187). Put plainly: TSHR260-AP bridge ELISA, full length TSHR on wells; 100 µg/mL, diluted in assay buffer.
Assay [14] deals with human TSHR (thyroid stimulating hormone receptor), full length, expressed in transfected CHO cells (human) (UniProt P16473). Kind of assay: cell-based or functional assay.

As to 9D33 IgG (antibody), the Mean absorbance at 405 nm (absorbance at 405 nm) in assay [1] is 0.102; in [3], 0.329; in assay [6], 0.006; in [7] it was -0.004. Also, the Inhibition of binding (%) amounted to 48.3% in [2]; 48% in assay [4]; 3.6% in assay [5]; 38.8% in assay [8]; 84% in [9].

Consider M22 IgG (antibody), for which the Mean absorbance at 405 nm (absorbance at 405 nm) in [1] was 0.599; in the assay with TSHR260-AP (human) [10], 0.045; in assay [3], 1.17; in assay [11], 0.365; in [6], 0.032; in the assay with TSHR260-AP (human) [12] it was 0.821. The same molecule came in with a Mean absorbance at 405 nm (absorbance at 405 nm) in [7] of -0.002. In addition, the Inhibition of binding (%) in assay [5] was -0.3%.

B1: 5C9 IgG (antibody, from another filing, V domains shown)
VH: EVQLVESGGGLIQPGGSLRLSCAASGFTVSSNYMSWVRQAPGKGLEWVSVTYSGGSTSYADSVKGRFTISRDNSKNTLYLQMNSLRAEDTAVYYCARGGRYCSSISCYARSGCDYWGQGTLVTVSS
VL: AIQMTQSPSSLSASVGDRVTITCRASQSISNYLNWYQQKPGKAPKLLIYAASSLQSGVPSRFSGSGSGTDFTLTISSLQPEDFATYYCQQSYSSPSTTFGQGTKLEIK
On to B1, for which the Mean absorbance at 405 nm (absorbance at 405 nm) in assay [13] is 0.669. Further, in assay [14], the % Inhibition of K1-18 IgG stimulation; 10 ng/mL K1-18 IgG + 0.001 µg/mL 5C9 IgG was 19%, the % Inhibition of K1-18 IgG stimulation; 10 ng/mL K1-18 IgG + 0.01 µg/mL 5C9 IgG came out at 0%, the % Inhibition of K1-18 IgG stimulation; 10 ng/mL K1-18 IgG + 0.1 µg/mL 5C9 IgG was 91% and the % Inhibition of K1-18 IgG stimulation; 10 ng/mL K1-18 IgG + 0.5 µg/mL 5C9 IgG was 99%. Moreover, in assay [14], the % Inhibition of K1-18 IgG stimulation; 10 ng/mL K1-18 IgG + 1 µg/mL 5C9 IgG came out at 98%, the % Inhibition of K1-18 IgG stimulation; 10 ng/mL K1-18 IgG + 5 µg/mL 5C9 IgG stood at 97%, the % Inhibition of K1-18 IgG stimulation; 10 ng/mL K1-18 IgG + 10 µg/mL 5C9 IgG was found to be 97% and the % Inhibition of K1-18 IgG stimulation; 10 ng/mL K1-18 IgG + 50 µg/mL 5C9 IgG came to 100%. In assay [14], the % Inhibition of K1-18 IgG stimulation; 10 ng/mL K1-18 IgG + 100 µg/mL 5C9 IgG was determined as 100%, the % Inhibition of K1-18 stimulation; 10 ng/mL K1-18 + 0.001 µg/mL 5C9 IgG came to 0%, the % Inhibition of K1-18 stimulation; 10 ng/mL K1-18 + 0.01 µg/mL 5C9 IgG worked out at 25% and the % Inhibition of K1-18 stimulation; 10 ng/mL K1-18 + 0.1 µg/mL 5C9 IgG amounted to 99%. Moreover, in assay [14], the % Inhibition of K1-18 stimulation; 10 ng/mL K1-18 + 1 µg/mL 5C9 IgG stood at 99.4%, the % Inhibition of K1-18 stimulation; 10 ng/mL K1-18 + 10 µg/mL 5C9 IgG stood at 99.6% and the % Inhibition of K1-18 stimulation; 10 ng/mL K1-18 + 100 µg/mL 5C9 IgG is 98.7%. The molecule also registered a Mean absorbance at 405 nm (absorbance at 405 nm) with TSHR260-AP (human) [10] of 0.02. The Inhibition of binding (%) in assay [4] was 80.4%. Moreover, in assay [11], the Mean absorbance at 405 nm (absorbance at 405 nm) was -0.005. In the assay with TSHR260-AP (human) [12], the Mean absorbance at 405 nm (absorbance at 405 nm) worked out at 0.011. In assay [8], the Inhibition of binding (%) was 8.1%. In [9], the Inhibition of binding (%) was found to be 37.1%.
